According to patent US10993998B2, “Determinants of cancer response to immunotherapy by PD-1 blockade” (Memorial Sloan Kettering Cancer Center, priority 2014, dated 2021):

Columns and labels:
CD8+ T-cells [1] = assay: Intracellular cytokine staining after re-stimulation with mutant or wild-type HERC1 peptide; format: cell-based, human; settings: PBLs from day 63 and 297 expanded with mutant peptide, re-stimulated
Description: HERC1 P>S mutant and wild type peptides of 9 amino acids in length (Mutant: […] (SEQ ID NO: 344), Wild type: […] (SEQ ID NO: 5925)) were synthesized (GenScript Piscataway, N.J.). 1.5×10^6 patient PBMCs were cultured with 1.5×10^6 autologous PBMCs pulsed with HERC1 P>S mutant peptide in RPMI media containing 10% pooled human serum (PHS), 10 mM HEPES, 2 mM L Glutamine, and 50 μM β-mercaptoethanol supplemented with IL-15 (10 ng/ml) and IL-2 (10 IU/ml), using methods previously described (59). […] Cells were then treated with 1× Brefeldin A and monensin (BioLegend) for 4 hours, and subsequently stained with 1 μL Alexa Fluor 405-CD3 (Invitrogen), 3 μL APC-H7-CD8 (BD Bioscience), and 1 μL ECD-CD4 (Beckman Coulter). Upon subsequent washing and permeabilization, the cells were stained with the following antibodies to intracellular cytokines: 3 μL Alexa Fluor 647-IFN-γ (Biolegend), 3 μL PE-MIP-1β, and 1 μL PE-Cy7-TNF-α (BD Pharmingen). Data were acquired by flow cytometry (using CYAN flow cytometer, Summit software, Dako Cytomation California Inc., Carpinteria, Calif.). Analysis was done by FlowJo version 10.1, TreeStar, Inc. CD3+ single cell lymphocytes were gated for analysis (SS vs. FS [low, mid], FS vs. Pulse Width [all, low], and CD3 vs. “dump” channel [high, low]).

CD8+ T-cells [2] = assay: MHC multimer screening of neoantigen-specific CD8+ T-cells in serially collected peripheral blood lymphocytes of a pembrolizumab responder; format: cell-based, human
Description: HLA-A restricted candidate neoantigens were synthesized in-house (Netherlands Cancer Institute) and HLA-multimers containing these peptides were produced by micro-scale parallel UV-induced peptide exchange reactions as previously described (26, 58). Briefly, peptide-MHC complexes loaded with UV-sensitive peptide were subjected to 366-nm UV light (CAMAG) for one hour at 4° C. in the presence of candidate neoantigen peptide in a 384-well plate. pMHC multimers were generated using a total of 11 different fluorescent streptavidin (SA) conjugates (Invitrogen). For each pMHC monomer, conjugation was performed with two of these fluorochromes. NaN3 (0.02% w/v) and an excess of D-biotin (26.4 mM, Sigma) were added to block residual binding sites. For T cell staining an combinatorial encoding strategy was employed to be able to analyze for reactivity against up to 47 different peptides in parallel (27). The PBMC samples were thawed, treated with DNAse for 1 h and stained with pMHC multimer panels for 15 min at 37 C. Subsequently, anti-CD8-AF700 (Invitrogen), anti-CD4-FITC (Invitrogen), anti-CD14-FITC (Invitrogen), anti-CD16-FITC (Invitrogen), anti-CD19-FITC (Invitrogen), and LIVE/DEAD Fixable IR Dead Cell Stain Kit (Invitrogen) were added for additional 20 min on ice. Data acquisition was performed on an LSR II flow cytometer (Becton Dickinson) with FACSDiva 6 software. Cutoff values for the definition of positive responses were ≥0.005% of total CD8+ cells and ≥10 events. For immunophenotypical analysis, day 44 PMLs were stained with HERC1 P3278S MHC multimers in two colors (qdot 625 (Invitrogen) and PerCPeFluor710 (ebioscience)) plus anti-CD45RA Ab (Invitrogen), anti-CCR7 Ab (BD Bioscience), anti-HLA-DR Ab (BD Bioscience), and anti-LAG-3 Ab (R&D systems). The immunophenotype of HERC1 P3278S reactive and bulk CD8+ T-cells were analyzed. Data were acquired using an LSR II flow cytometer (Becton Dickson) with FASCDiva 6 software.

[3] = test system: stage IV non-small cell lung cancer (NSCLC) patients; assay: Clinical efficacy of pembrolizumab in NSCLC patients (protocol NCT01295827), by tumor genomic subgroup; format: in vivo, human; settings: for ORR: all 34
Description: All patients had stage IV non-small cell lung cancer (NSCLC) and were treated at Memorial Sloan Kettering Cancer Center (n=29) or the University of California at Los Angeles (n=5) on protocol NCT01295827 (FIG. 17). All patients initiated therapy in 2012-2013 and were treated at 10 mg/kg every 2-3 weeks, except for 5 patients treated at 2 mg/kg every 3 weeks. The overall response rate and progression-free survival are reported to be similar across dose and schedules (6). All patients had consented to Institutional Review Board-approved protocols permitting tissue collection and sequencing. PD-L1 expression was assessed prospectively by immunohistochemistry using a previously validated murine anti-human anti-PD-L1 antibody (clone 22C3, Merck & Co., Inc.). Membranous expression of PD-L1 on tumor cells and infiltrating immune cells were scored. 31 (91%) scored at least 1% positive for PD-L1 expression; 2 patients were PD-L1 negative; and 1 was unknown. Smoking status was evaluated using previously completed self-reported smoking questionnaires executed as standard of care at MSKCC or review of medical records at UCLA.
Per protocol, CT scans were performed every nine weeks. Partial and complete responses were confirmed by a repeat imaging occurring at least 4 weeks after the initial identification of response; unconfirmed responses were considered stable or progressive disease dependent on results of the second CT scan. Durable clinical benefit (DCB) was defined as stable disease or partial response lasting longer than 6 months (week 27, the time of third protocol-scheduled response assessment). No durable benefit (NDB) was defined as progression of disease ≤6 months of beginning therapy. Patients who were still ongoing study therapy at the time of the data lock (Oct. 10, 2014) but who had not yet reached 6 months of follow up were considered “Not reached” (NR). These patients were not included in the analysis of DCB/NDB, but were included in assessments of objective response and progression-free survival. For patients with ongoing response to study therapy, progression free survival was censored at the date of the most recent imaging evaluation. For alive patients, overall survival was censored at the date of last known contact.
Mann-Whitney test was used to compare mutation burdens and differences in the frequency of nucleotide changes. The Log-Rank and Mantel-Haenszel tests were used to compare Kaplan-Meier survival curves. The proportion of objective responders/non-responders or DCB/NDB were compared using Fisher's Exact Test. The receiver operator characteristic (ROC) curve was generated by plotting the proportion of all DCB patients with mutation burden above any given cut point (sensitivity) against the proportion of the NDB patients that would also exceed the same cut point (1-specificity). The area under the curve and exact 95% confidence intervals are reported. Correlations between nonsynonymous mutation burden and neoantigen burden, neoantigen burden and best overall response, and frequency of neoantigen burden/nonsynonymous mutation and best overall response were calculated using Spearman correlation formula. Statistical analyses were performed using GraphPad Prism v.6 (Graphpad Prism Software, San Diego, Calif.).

[4] = test system: stage IV non-small cell lung cancer (NSCLC) patients; settings: 10 mg/kg every 2-3 weeks vs 2 mg/kg every 3 weeks; reference (6); cited from earlier work
[5] = cited from earlier work
[6] = approximately 2000 patients; cited from earlier work
[7] = discovery cohort, high nonsynonymous burden
[8] = discovery cohort, low nonsynonymous burden
[9] = validation cohort, nonsynonymous mutation burden above the median
[10] = validation cohort, nonsynonymous mutation burden below the median
[11] = 411 patients, Trial 1, all grades

For “ASNAPSAAK (listed as Homo sapiens) [synthesized 9 amino acid wild type HERC1 peptide]”, the “polyfunctional CD8+ T-cells (IFNγ, CD107a, MIP113, TNFα production) in response to peptide” value (CD8+ T-cells [1]) was “not”.

With “ASNASSAAK (listed as Homo sapiens) [synthesized 9 amino acid mutant HERC1 P>S neoantigen peptide]” the “polyfunctional CD8+ T-cells (IFNγ, CD107a, MIP113, TNFα production) in response to peptide” value (CD8+ T-cells [1]) was “detected”, the “HERC1 P3278S neoantigen-specific CD8+ T-cell response (MHC multimer+)” value (CD8+ T-cells [2]; Day 44) was 0.044 % of Cd8+ T-cells and the “HERC1 P3278S neoantigen-specific CD8+ T-cell response (MHC multimer+)” value (CD8+ T-cells [2]; at start of therapy, level of detection) was under 0.005%. The “HERC1 P3278S neoantigen-specific CD8+ T-cell response (MHC multimer+)” value (CD8+ T-cells [2]; subsequent months as tumor regression plateaued) was “just above background” and the “HERC1 P3278S neoantigen-specific CD8+ T-cell response (MHC multimer+)” value (CD8+ T-cells [2]; within 3 weeks post therapy initiation) was 0.040 % of CD8+ T-cells.

For pembrolizumab, the “median PFS” value ([3]; TH tumors) was “not reached”, the “rate of DCB” value ([3]; TH tumors) was 77% and the “median PFS” value ([3]; TL tumors) was 3.5. The “rate of DCB” value ([3]; TL tumors) was 22%, the ORR ([3]; transversion-high (TH, smoking signature) tumors) was 56% and the ORR ([3]; transversion-low (TL) tumors) was 17%. The “confirmed objective response rate (ORR)” value [3, 7] was 63%, the “median PFS” value [3, 7] was 14.5 months and the “rate of durable clinical benefit (DCB)” value ([3]; discovery cohort, high nonsynonymous burden (above median of cohort)) was “Seventy-three”. For the same substance, the “rate of durable clinical benefit (DCB)” value ([3]; discovery cohort, low mutation burden) was 13%, the “confirmed objective response rate (ORR)” value [3, 8] was 0% and the “median PFS” value [3, 8] was 3.7 months. For the same substance, the “rate of DCB” value ([3]; high nonsynonymous mutation burden (>200) and some PD-L1 expression (weak/strong)) was 91%, the “rate of DCB” value ([3]; low mutation burden and some degree of PD-L1 expression) was 10% and the “decrease in tumor burden” value ([3]; one patient (Study ID #9) with exceptional response) was 95%. For the same substance, the “duration of partial response” value ([3]; one tumor with very low burden (56 nonsynonymous mutations)) was 8 months, the “median PFS” value ([3]; overall set, high neoantigen burden) was 14.5 months and the “median PFS” value ([3]; overall set, low neoantigen burden) was 3.5 months. The “rate of DCB” value ([3]; self-reported ever smokers) was 48%, the “rate of DCB” value ([3]; self-reported never-smokers) was 33% and the “tumors with no durable benefit (NDB)” value ([3]; tumors with ≥178 nonsynonymous mutations, both cohorts) was 5 of 18. For the same substance, the “median PFS” value [3, 9] was “not reached”, the “rate of DCB” value [3, 9] was 83% and the “median PFS” value [3, 10] was 3.4 months. The “rate of DCB” value [3, 10] was 22%, the “rate of durable benefit” value ([3]; validation cohort, tumors harboring ≥178 mutations) was 75% and the “rate of durable benefit” value ([3]; validation cohort, tumors with <178 mutations) was 14%. For the same substance, the “rate of DCB” value ([3]; weak PD-L1 expression, high nonsynonymous mutation burden) was 75%, the “rate of DCB” value ([3]; weak PD-L1 expression, low mutation burden) was 11% and the “overall response rate and progression-free survival across dose and schedules” value [4] was “similar”. The “Pneumonitis, patients” value ([5]; 411 melanoma patients, Trial 1, all grades) was 2.9%, the “Colitis (including microscopic colitis), patients” value [5, 11] was 1% and the “Hepatitis (including autoimmune hepatitis), patients” value [5, 11] was 0.5%. The “Hyperthyroidism, patients” value [5, 11] was 1.2%, the “Hypophysitis, patients” value [5, 11] was 0.5% and the “Hypothyroidism, patients” value [5, 11] was 8.3%. The “Colitis Grade 2, patients” value ([5]; Trial 1) was 0.2%, the “Colitis Grade 3, patients” value ([5]; Trial 1) was 0.5% and the “Hepatitis Grade 4, patients” value ([5]; Trial 1) was 0.2%. The “Hyperthyroidism Grade 2, patients” value ([5]; Trial 1) was 0.5%, the “Hyperthyroidism Grade 3, patients” value ([5]; Trial 1) was 0.2% and the “Hypophysitis Grade 2, patients” value ([5]; Trial 1) was 0.2%. For the same substance, the “Hypophysitis Grade 4, patients” value ([5]; Trial 1) was 0.2%, the “Hypothyroidism Grade 3, patients” value ([5]; Trial 1) was 0.2% and the “Pneumonitis Grade 2, patients” value ([5]; Trial 1) was 1.9%. The “Pneumonitis Grade 3, patients” value ([5]; Trial 1) was 0.2%, the “discontinuation of KEYTRUDA due to pneumonitis, patients” value ([5]; Trial 1) was 0.7% and the “median duration of colitis” value ([5]; Trial 1) was 2.6 months. For the same substance, the “median duration of hyperthyroidism” value ([5]; Trial 1) was 2.8 months, the “median duration of pneumonitis” value ([5]; Trial 1) was 4.9 months and the “median time to development of pneumonitis” value ([5]; Trial 1) was 5 months. For the same substance, the “other immune-mediated adverse reactions, patients: exfoliative dermatitis, uveitis, arthritis, myositis, pancreatitis, hemolytic anemia, partial seizures, adrenal insufficiency” value ([5]; Trial 1) was “less than 1%”, the “patients who received corticosteroids or discontinued KEYTRUDA for management of hypothyroidism” value ([5]; Trial 1) was “No patient” and the “permanent discontinuation of KEYTRUDA due to colitis, patients” value ([5]; Trial 1) was 0.2%. For the same substance, the “permanent discontinuation of KEYTRUDA due to hyperthyroidism, patients” value ([5]; Trial 1) was 0.2%, the “Nephritis, patients” value ([5]; all grades) was 0.7% and the duration of hepatitis ([5]; case of Grade 4 hepatitis) was 1.1 months. For the same substance, the “Grade 2 autoimmune nephritis, patients” value ([5]; human, in vivo) was 0.2%, the “duration of autoimmune nephritis” value ([5]; human, in vivo) was 3.2 months and the “most common adverse reactions, patients: fatigue, cough, nausea, pruritus, rash, decreased appetite, constipation, arthralgia, diarrhea” value ([5]; human, in vivo) was over 20%. The “patients who fully recovered renal function” value ([5]; nephritis, with high-dose corticosteroids) was “All three”, the “interstitial nephritis with renal failure, patients” value ([5]; one Grade 3 and one Grade 4) was 0.5% and the pneumonitis completely resolved ([5]; patients with Grade 2-3 pneumonitis) was “seven of the nine”. For the same substance, the “complete resolution of colitis” value ([5]; patients with colitis) was “All four”, the “complete resolution of hepatitis” value ([5]; patients with hepatitis) was “Both” and the “complete resolution of hyperthyroidism” value ([5]; patients with hyperthyroidism) was “All five”. For the same substance, the “additional immune-mediated adverse reactions, patients: myasthenic syndrome, optic neuritis, rhabdomyolysis” value [6] was “less than 1%”.
